Laboratory results taken from PMC2566858 (Nucleic Acids Research, 2008).

Columns and labels:
Assay in all cases: fluorescence anisotropy
[1] = target: T1, rGyr_fl Y851F (full-length reverse gyrase) (Thermotoga maritima, UniProt O51934 1-1104, Y851F)
T1 sequence: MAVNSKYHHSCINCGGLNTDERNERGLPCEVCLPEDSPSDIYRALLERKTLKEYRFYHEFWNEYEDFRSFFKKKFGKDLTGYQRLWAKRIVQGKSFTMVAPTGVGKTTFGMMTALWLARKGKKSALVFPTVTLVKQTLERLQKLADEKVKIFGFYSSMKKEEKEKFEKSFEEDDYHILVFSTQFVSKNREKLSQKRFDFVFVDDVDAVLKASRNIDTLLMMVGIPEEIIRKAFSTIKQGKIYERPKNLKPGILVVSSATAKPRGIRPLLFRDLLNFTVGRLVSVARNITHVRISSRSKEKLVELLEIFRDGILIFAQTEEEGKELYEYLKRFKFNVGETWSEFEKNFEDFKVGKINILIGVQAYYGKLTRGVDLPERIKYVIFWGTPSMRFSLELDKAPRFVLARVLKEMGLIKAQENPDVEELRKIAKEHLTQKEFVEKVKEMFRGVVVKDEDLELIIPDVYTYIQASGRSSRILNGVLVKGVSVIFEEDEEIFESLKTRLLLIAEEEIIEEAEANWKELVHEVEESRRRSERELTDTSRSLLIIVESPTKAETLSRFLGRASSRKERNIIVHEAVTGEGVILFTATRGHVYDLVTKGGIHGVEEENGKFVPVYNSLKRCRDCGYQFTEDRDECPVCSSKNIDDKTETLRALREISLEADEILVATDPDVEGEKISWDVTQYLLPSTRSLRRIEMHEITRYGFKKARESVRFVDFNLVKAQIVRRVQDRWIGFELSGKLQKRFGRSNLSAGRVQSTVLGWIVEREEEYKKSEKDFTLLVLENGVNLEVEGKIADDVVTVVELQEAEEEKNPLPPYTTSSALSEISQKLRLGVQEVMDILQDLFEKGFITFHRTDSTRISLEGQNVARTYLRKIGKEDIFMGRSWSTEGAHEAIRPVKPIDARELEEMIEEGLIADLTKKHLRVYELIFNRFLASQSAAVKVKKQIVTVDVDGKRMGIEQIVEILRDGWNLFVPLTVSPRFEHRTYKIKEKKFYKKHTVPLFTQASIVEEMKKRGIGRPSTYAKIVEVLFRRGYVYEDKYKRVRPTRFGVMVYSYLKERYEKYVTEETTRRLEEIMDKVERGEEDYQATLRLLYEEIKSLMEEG

[2] = target: T2, rGyr_hel (reverse gyrase helicase-like domain) (Thermotoga maritima, UniProt O51934 59-541)
T2 sequence: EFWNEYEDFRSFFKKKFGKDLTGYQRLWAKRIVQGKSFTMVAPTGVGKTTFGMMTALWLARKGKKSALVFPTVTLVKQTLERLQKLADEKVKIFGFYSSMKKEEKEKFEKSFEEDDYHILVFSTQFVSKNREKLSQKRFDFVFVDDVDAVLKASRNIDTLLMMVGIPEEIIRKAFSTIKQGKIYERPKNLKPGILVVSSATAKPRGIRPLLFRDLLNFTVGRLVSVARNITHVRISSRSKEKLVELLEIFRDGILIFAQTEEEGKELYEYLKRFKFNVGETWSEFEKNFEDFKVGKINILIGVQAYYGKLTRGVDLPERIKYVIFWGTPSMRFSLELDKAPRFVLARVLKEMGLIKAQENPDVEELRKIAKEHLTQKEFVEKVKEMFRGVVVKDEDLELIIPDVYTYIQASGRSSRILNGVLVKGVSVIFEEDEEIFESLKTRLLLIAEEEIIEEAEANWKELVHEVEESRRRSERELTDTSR

rGyr_fl K106Q/Y851F = target: T3, rGyr_fl K106Q/Y851F (Thermotoga maritima, UniProt O51934 1-1104, K106Q;Y851F)
T3 sequence: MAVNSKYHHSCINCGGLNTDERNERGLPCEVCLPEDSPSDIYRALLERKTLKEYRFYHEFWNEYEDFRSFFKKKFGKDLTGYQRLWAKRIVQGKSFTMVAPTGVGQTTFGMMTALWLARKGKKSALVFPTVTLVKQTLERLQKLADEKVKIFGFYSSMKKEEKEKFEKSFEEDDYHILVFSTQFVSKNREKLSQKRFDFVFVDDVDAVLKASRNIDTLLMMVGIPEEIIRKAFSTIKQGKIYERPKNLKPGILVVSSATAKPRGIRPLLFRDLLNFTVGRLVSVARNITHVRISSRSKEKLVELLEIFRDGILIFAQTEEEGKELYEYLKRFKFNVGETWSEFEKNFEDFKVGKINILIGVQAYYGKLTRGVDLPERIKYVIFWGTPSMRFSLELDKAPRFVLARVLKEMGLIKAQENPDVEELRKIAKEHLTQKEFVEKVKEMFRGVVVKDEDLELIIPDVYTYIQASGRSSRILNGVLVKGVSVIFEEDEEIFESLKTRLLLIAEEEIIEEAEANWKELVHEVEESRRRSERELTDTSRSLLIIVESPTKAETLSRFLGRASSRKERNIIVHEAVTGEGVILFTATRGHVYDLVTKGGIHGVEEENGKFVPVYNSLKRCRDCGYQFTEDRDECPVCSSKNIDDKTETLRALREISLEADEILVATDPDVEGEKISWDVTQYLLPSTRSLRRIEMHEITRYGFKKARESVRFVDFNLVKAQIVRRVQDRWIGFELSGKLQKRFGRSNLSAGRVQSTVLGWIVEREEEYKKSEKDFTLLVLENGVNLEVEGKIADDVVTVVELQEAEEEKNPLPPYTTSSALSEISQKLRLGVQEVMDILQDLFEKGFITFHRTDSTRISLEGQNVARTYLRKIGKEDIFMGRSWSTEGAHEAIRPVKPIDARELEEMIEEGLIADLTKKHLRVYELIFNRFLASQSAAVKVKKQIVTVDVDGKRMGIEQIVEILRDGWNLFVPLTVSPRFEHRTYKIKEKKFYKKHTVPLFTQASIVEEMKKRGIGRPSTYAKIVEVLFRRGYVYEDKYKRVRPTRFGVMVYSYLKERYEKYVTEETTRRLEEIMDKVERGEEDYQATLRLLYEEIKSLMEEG

B1: 60-base ssDNA (ssDNA)
DNA: AAGCCAAGCTTCTAGAGTCAGCCCGTGATATTCATTACTTCTTATCCTAGGATCCCCGTT
Binder B1 has a Kd [1] of 49 ± 12 nM and a Kd [2] of 920 ± 210 nM.

B2: 60 bp dsDNA (dsDNA)
DNA 1: AAGCCAAGCTTCTAGAGTCAGCCCGTGATATTCATTACTTCTTATCCTAGGATCCCCGTT
DNA 2: AACGGGGATCCTAGGATAAGAAGTAATGAATATCACGGGCTGACTCTAGAAGCTTGGCTT
In the case of B2, the Kd (rGyr_fl K106Q/Y851F) is reported as 460 ± 70 nM.
